This data set deals with T1, Rop (UniProt P03051 1-63).
T1 sequence: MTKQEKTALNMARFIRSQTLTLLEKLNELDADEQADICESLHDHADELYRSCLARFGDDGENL
As to the kind of experiment: EMSA.

B1: RNA1-U6/RNA2-WT kissing dimer (structured_RNA)
RNA 1: GGCAGCUUUUUUUUGGUAGUUUUUUGCUGCC
RNA 2: GCACCGCUACCAACGGUGC
For the molecule B1, the binding result is recorded as “binds”.

The values are drawn from PMC7043357.
